The source of these data is patent US20190352405A1 (I MAB BIOPHARMA US, published 2019).

For test [1], the target named is T1, recombinant PD-L1 protein (human PD-L1-his taq) (human, UniProt Q9NZQ7 19-238).
T1 construct: also called human PD-L1-his taq protein; his-PDL1; not shown: his tag
Description: SPR (Biacore T200), antibody captured by anti-human Fc on CM5 chip, PD-L1-his as analyte. Here is the method:
A series of dilutions of human PD-L1-his taq protein were injected over captured antibody for 3 mins at a flow rate of […]. The antigen was allowed to dissociate for 900s. All the experiments were carried out on a Biacore T200. Data analysis was carried out using Biacore T200 evaluation software.

Test [2] has as its target T2, IL7 receptor (IL7R) on human primary CD4+ T cells (human, UniProt P16871 21-459).
T2 construct: whole, on cells; Native receptor on cells; also called surface IL7R; CD127 (IL7Ra)
T2 sequence (looked up): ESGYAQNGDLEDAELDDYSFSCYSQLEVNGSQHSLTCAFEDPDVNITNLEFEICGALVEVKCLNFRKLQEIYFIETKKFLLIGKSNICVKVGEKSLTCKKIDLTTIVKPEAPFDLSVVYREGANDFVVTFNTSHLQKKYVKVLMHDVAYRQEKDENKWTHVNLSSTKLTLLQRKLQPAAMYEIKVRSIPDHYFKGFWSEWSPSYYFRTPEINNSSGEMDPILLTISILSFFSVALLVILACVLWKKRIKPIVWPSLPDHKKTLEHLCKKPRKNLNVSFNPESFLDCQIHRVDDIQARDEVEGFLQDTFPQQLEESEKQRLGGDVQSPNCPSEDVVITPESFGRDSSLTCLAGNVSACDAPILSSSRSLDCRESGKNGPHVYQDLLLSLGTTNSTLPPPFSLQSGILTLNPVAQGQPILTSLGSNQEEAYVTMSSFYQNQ
The test is described as follows: FACS on human primary CD4+ T cells, 4 °C for 30 min, PE anti-human Fc secondary antibody, MFI; fit value printed for a nearly flat control curve; the EC50 column has no unit, nM is taken from the x axis (Log [Conc.] / nM). As for the experimental part:
PE-conjugated anti-human Fc secondary antibody were used to detect the fusion molecules that bound to the IL7R of CD4⁺ T cells by FACS. […] For ligation-mediated receptor internalization assay, human primary CD4⁺ T cells were cocultured with fusion molecules at 37° C. for 15 mins. PE-cy7-conjugated-anti-CD127 (IL7Ra) antibody was used to detect the surface IL7R by FACS.

The target of test [3] is T3, PD-L1 expressed on Raji cells (PDL1-Raji cells) (UniProt Q9NZQ7 19-290, limits assumed).
T3 construct: whole, on cells; also called mammalian expressed PD-L1
T3 sequence (Q9NZQ7 19-290 limits assumed): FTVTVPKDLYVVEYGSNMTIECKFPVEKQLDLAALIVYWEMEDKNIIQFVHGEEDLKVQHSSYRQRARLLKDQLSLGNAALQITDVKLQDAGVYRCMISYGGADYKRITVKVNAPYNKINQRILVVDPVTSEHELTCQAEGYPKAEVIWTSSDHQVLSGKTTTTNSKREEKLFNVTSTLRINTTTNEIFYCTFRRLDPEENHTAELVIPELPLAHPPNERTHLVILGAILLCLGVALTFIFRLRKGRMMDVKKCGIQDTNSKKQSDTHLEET
Description: FACS on PDL1-Raji cells, Alexa 488 anti-human IgG secondary antibody, MFI; the EC50 table has no unit, nM is taken from the x axis (Log [Conc.] / nM). As for the experimental part: After washing by FACS buffer (PBS with 2% FBS), the Alexa 488-anti-human IgG antibody was added to each well and incubated at RT for 1 hour. The MFI of Alexa 488 were evaluated by FACSAriaIII.

T1 sequence (Q9NZQ7 19-238 limits assumed): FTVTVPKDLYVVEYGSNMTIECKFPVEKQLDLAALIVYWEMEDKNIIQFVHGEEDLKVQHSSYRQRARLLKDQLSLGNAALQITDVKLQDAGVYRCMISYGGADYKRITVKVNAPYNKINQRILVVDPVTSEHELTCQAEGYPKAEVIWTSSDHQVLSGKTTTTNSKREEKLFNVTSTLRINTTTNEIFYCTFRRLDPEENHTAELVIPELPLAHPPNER

B1: Anti-PDL1 mAb (antibody, V domains shown)
VH: EVQLVESGGGLVQPGGSLRLSCAASGFTFSSYDMSWVRQAPGKSLEWVATISDAGGYIYYSDSVKGRFTISRDNAKNSLYLQMNSLRDEDTAVYICAREFGKRYALDYWGQGTTVTVSS
VL: DIQMTQSPSSLSASVGDRVTITCKASQDVTPAVAWYQQKPGKAPKLLIYSTSSRYTGVPSRFSGSGSGTDFTFTISSLQPEDIATYYCQQHYTTPLTFGQGTKLEIK
notes: also called anti-PDL1 monoclonal antibody; anti-PDL1 antibody
Take B1: in test [1], the Kd (commonly the equilibrium constant for the complex coming apart) was determined as 2.09 nM; the koff – broadly, a measure of how fast the partners let go of each other – is 0.000178 s⁻¹; the kon (in general, the rate constant with which the complex forms) stood at 85000 M⁻¹ s⁻¹. For the same molecule, the EC50 (usually the concentration that produces a half-maximal response) in test [2] is 35 nM. Also, in test [3], the EC50 was found to be 7.99 nM.
